Laboratory results from patent US20220356229A1.
Values joined by “and” are separate entries in the source; they are usually repeats but may differ in a detail not shown here. Identical values can stand only once.

B1: Antibody 389 (antibody, V domains shown)
VH: QVQLVESGGGVVQPGRSLRLSCAASGFTFSSYAMHWVRQAPGKGLEWVAVISYDGSNKYYADSVKGRFTISRDNSKNTLYLQMNSLRAEDTAVYYCASQGRMYVRGVDYGVYWGQGTLVTVSS
VL: NFMLTQPHSVSESPGKTVTISCTGSSGSIASNYVQWYQQRPGSAPTTVIYEDNQRPSGVPDRFSGSIDSSSNSASLTISGLKTEDEADYYCQSYDSSKISHAVFGGGTQLTVL
B2: Antibody 390 (antibody, V domains shown)
VH: EVQLVESGGGLIQPGGSLRLSCAASGFTVSSNYMSWVRQAPGKGLEWVSIIYSGGSTYYADSVKGRFTISRDNSKNTLYLQMNSLRAEDSAVYSCATTMVRGLIISYYYGMDVWGQGTTVTVSS
VL: QSALTQPASVSGSPGQSITISCTGTSSDVGGYNYVSWYQQHPGKAPKLMIYEVSNRPSGVSNRFSGSKSGNTASLTISGLQAEDEADYYCSSYTSSSTLVFGGGTKLTVL
B3: Antibody 413 (antibody, V domains shown)
VH: EVQLVESGGGLIQPGGSLRLSCAASGFTVSGNYMNWVRQAPGKGLEWVSVIYSGGSTYYADSVKGRFTISRANSKNTLYLQMNSLRAEDTAVYYCASTSLVRGLIILYYYGMDVWGQGTTVTVSS
VL: QSALTQPASVSGSPGQSITISCTGTSSDVGGYNYVSWYQQHPGKAPKLMIYEVSNRPSGVSNRFSGSKSGNTASLTISGLQAEDEADYYCSSYTSSSTLVFGGGTKLTVL
B4: antibody 495 (antibody, V domains shown)
VH: QITLKESGPTLVKPTQTLTLTCTFSGFSLSTSGVGVGWIRQPPGKALEWLALIYWDDDKRYSPSLKSRLTITKDTSKNQVVLIMTNMDPVDTATYYCAHRDSSSWFDLDAFDIWGQGTMVIVSS
VL: QSVLTQPPSVSEAPRQRVTISCSGSSSNIGNNAVNWYQQLPGKAPKLLIYYDDLLPSGVSDRFSGSKSGTSASLAISGLQSEDEADYYCAAWDDRLNGPVFGGGTKLTVL
B5: antibody 499 (antibody, V domains shown)
VH: EVQLVESGGGLVKPGGSLRLSCAASGFTFSSYSMNWVRQAPGKGLEWVSSISSSSSYIYYADSVKGRFTISRDNAKNSLYLQMNSLRAEDTAVYYCARAPAGIVVGPDYWGQGTLVTVSS
VL: NFMLTQPHSVSESPGKTVTISCTGSSGSIASNYVQWYQQRPGSAPTTVIFEDNQRPSGVPDRFSGSIDSSSNSASLTISGLKTEDEADYYCQSYHSSNPHVVFGGGTKLTVL
B6: anti-SARS-CoV-2 antibody 493 (antibody, V domains shown)
VH: EVQLVESGGGLIQPGRSLRLSCAASGFTVSITYMSWVRQAPGKGLEWVSLIYSGGSSYYADSVKGRFTISRDNSKNTLYLQMNSLRAEDTAVYYCATTMVRGVIISYYYGMDVWGQGTTVTVSS
VL: QSALTQPASVSGSPGQSITISCTGTSSDVGGYNYVSWYQQHPGKAPKLMIYEVSNRPSGVSNRFSGSKSGNTASLTISGLQAEDEADYYCSSYTSSSTLVFGGGTKLTVL
B7: antibody 269 (antibody, V domains shown)
VH: QLQLQESGPGLVKPSETLSLTCTVSGGSISSSSYYWGWIRQPPGKGLEWIGNIYYSGSTYYNPSLKSRVTISVDTSKNQFSLKLSSVTAADTAVYYCAGEELDIVATIYSSRYYYYGMDVWGQGTTVTVSS
VL: QSALTQPASVSGSPGQSITISCTGTSSDVGGYNYVSWYQQHPGKAPKLMIYEVSNRPSGVSNRFSGSKSGNTASLTISGLQAEDEADYYCSSYTSTSTLVFGGGTKLTVL
B8: antibody 270 (antibody, V domains shown)
VH: QVQLVQSGAEVKRPGTSVKVSCKTSGYTFTDHFIHWVRQAPGRRLEWMGWINPNSGGTNYAQNFQGRVTMTRDTSITTAYMDLTRLTSDDTAIYYCAREAAYGSGNLNWFDPWGQGTRVTVSS
VL: NFMLTQPHSVSESPGKTVTISCTGSSGSIAANYVHWYQQRPGSAPRTVIYEDNQRPSGVPDRFSGSIDSSSNSASLTISGLKTEDEADYYCQSYDGDSWVFGGGTKLTVL
B9: antibody 464 (antibody, V domains shown)
VH: QVQLVQSGAEVKKPGASVKVSCKVSGYTLTELSMHWVRQAPGKGLEWMGGFDPEDGETIYAQKFQGRVTMTEDTSTDTAYMELSSLRSEDTAVYYCATARAFGVANWFDPWGQGTLVTVSS
VL: QSVLTQPPSASGTPGQRVTISCSGSSSNIGSNYVYWYQQLPGTAPKLLIYRNNQRPSGVPDRFSGSKSGTSASLAISGLRSEDEADYYCAAWDDSLSGLYVFGTGTKVTVL
B10: antibody 485 (antibody, V domains shown)
VH: QVQLQESGPGLVKPSGTLSLTCAVSGASISSSNWWSWVRQPPGKGLEWIGEIYHSGSTNYNPSLKSRVTISVDKSKNQFSLKLSSVTAADTAVYYCARRSYYGSGSYYPFDYWGQGTLVTVSS
VL: QSALTQPASVSGSPGQSITISCTGTSSDVGSYNLVSWYQQHPGKAPKLMIYEGRKRPSGVSNRFSGSKSGNTASLTISGLQAEDEADYYCCSYAGSSTYVFGTGTKVTVL

Columns and labels:
Settings in all cases: remark: other sources report otherwise
[1] = biological target: SARS-CoV-2 Spike (S) protein, wild type, full length, expressed on the surface of transiently transfected CHO cells (SARS-CoV-2), P0DTC2
[2] = biological target: SARS-CoV-2 Spike protein, wild type, full length (SARS-CoV-2), P0DTC2
[3] = biological target: T1, SARS-CoV-2 Spike (S) protein, wild type, full length (SARS-CoV-2), P0DTC2
[4] = biological target: SARS-CoV-2 Spike (S) protein, wild type (SARS-CoV-2), P0DTC2; assay: HT-SPR Carterra LSA; mAb coupled to chip, Spike in solution; 1:1 Langmuir fit
[5] = biological target: T1, SARS-CoV-2 Spike (S) protein, wild …; remark: listed apart in the source

| Binder | MFI fold over isotype control (fold over isotype) [1] | binding signal, fold over isotype control (fold over isotype) [2] | other results |
| --- | --- | --- | --- |
| B1 | 0.72 | – | – |
| B2 | 0.73 | – | – |
| B3 | 1.11 | – | – |
| B4 | – | 1090 and 384 and 530 | median fluorescence, fold over isotype control (fold over isotype) [3]: 0.83 |
| B5 | – | 1120 and 386 and 432 | median fluorescence, fold over isotype control (fold over isotype) [3]: 0.9 |
| B6 | – | – | kon [4]: 75000 M⁻¹ s⁻¹ |
| B7 | – | – | bead binding signal (fold over isotype) (fold over isotype) [5]: 480 and 191 and 188 |
| B8 | – | – | bead binding signal (fold over isotype) (fold over isotype) [5]: 305 |
| B9 | – | 1.27 and 0.99 and 1.04 | – |
| B10 | – | 510 | – |
